Experimental data taken from the supplement of paper PMC7125110.
± gives the standard error. For some assays here: This sample holds only a part of the variants without activity.

B1: glmS ribozyme (parent)
chain: AUAAAAGCGCCAGAACUACAGAAAUGUAGUUGACGAGGAGGAGGUUUAUCGAAUUUUCGGCGGAUGCCUCCAAA

Assays:
Conditions in all cases: with glucosamine-6-phosphate
[1] = variants of: B1; assay: kcat; higher = faster cleavage; RNA array
Procedure, shortened: (§1)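 Ribozyme variants carrying barcodes were transcribed in situ on sequenced MiSeq chips by E. coli RNA polymerase and tracked at 37 °C with a hybridised Cy3 probe. They were exposed to 40 μM to 10 mM glucosamine-6-phosphate in HEPES/KCl/Mg(OAc)2 buffer. kobs came from exponential decay fits of normalised per-tile medians, and kcat and KM from weighted Michaelis–Menten fits.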

[2] = variants of: B1; assay: self-cleavage kobs at 2500 uM GlcN6P; higher = faster cleavage; RNA array
Procedure, shortened: as §1

[3] = variants of: B1; assay: self-cleavage kobs at 10000 uM GlcN6P; higher = faster cleavage; RNA array
Procedure, shortened: as §1

[4] = variants of: B1; assay: KM; higher = weaker cofactor use; RNA array
Procedure, shortened: as §1

[5] = variants of: B1; assay: self-cleavage kobs at 40 uM GlcN6P; higher = faster cleavage; RNA array
Procedure, shortened: as §1

[6] = variants of: B1; assay: self-cleavage kobs at 640 uM GlcN6P; higher = faster cleavage; RNA array
Procedure, shortened: as §1

[7] = variants of: B1; assay: self-cleavage kobs at 160 uM GlcN6P; higher = faster cleavage; RNA array
Procedure, shortened: as §1

| Variant | kcat [1] | self-cleavage kobs at 2500 uM GlcN6P [2] | self-cleavage kobs at 10000 uM GlcN6P [3] | KM [4] | self-cleavage kobs at 40 uM GlcN6P [5] | self-cleavage kobs at 640 uM GlcN6P [6] | self-cleavage kobs at 160 uM GlcN6P [7] |
| --- | --- | --- | --- | --- | --- | --- | --- |
| C68U C70U | 2.24e-05 ± 7.8e-06 s⁻¹ | 3.68e-05 ± 7.6e-06 s⁻¹ | 1.88e-05 ± 3.8e-06 s⁻¹ | – | – | – | – |
| G44U U46G | 0.000218 ± 4.7e-05 s⁻¹ | 0.000102 ± 1.5e-05 s⁻¹ | 0.000146 ± 3.9e-05 s⁻¹ | 3350 ± 1300 µM | < 1e-05 s⁻¹ | 2.83e-05 ± 1e-05 s⁻¹ | – |
| U31C A53G | 0.00573 ± 0.0015 s⁻¹ | 0.00309 ± 0.00042 s⁻¹ | 0.00495 ± 0.00059 s⁻¹ | 1960 ± 740 µM | 0.000158 ± 1.8e-05 s⁻¹ | 0.00167 ± 0.00042 s⁻¹ | 0.000305 ± 5.6e-05 s⁻¹ |
| G40C U69C | 7.37e-05 ± 2.1e-05 s⁻¹ | 5.5e-05 ± 1.1e-05 s⁻¹ | 5.63e-05 ± 1.4e-05 s⁻¹ | – | – | – | – |
| U30A C67U | 0.00166 ± 0.00065 s⁻¹ | 0.00118 ± 0.00017 s⁻¹ | 0.00106 ± 0.00034 s⁻¹ | – | 5.62e-05 ± 1.2e-05 s⁻¹ | 0.00036 ± 6.4e-05 s⁻¹ | 0.000105 ± 2.1e-05 s⁻¹ |
| G32A C68A | 1.56e-05 ± 4.4e-06 s⁻¹ | – | – | – | – | – | – |
| C11U U65A C71U | 0.000194 ± 1.4e-05 s⁻¹ | 8.15e-05 ± 1.6e-05 s⁻¹ | 0.000139 ± 4.3e-05 s⁻¹ | 3610 ± 470 µM | – | 2.73e-05 ± 1.3e-05 s⁻¹ | – |
| A14C G32A | 0.00779 ± 0.0028 s⁻¹ | 0.00183 ± 0.00065 s⁻¹ | 0.00702 ± 0.00097 s⁻¹ | – | 0.000121 ± 2.5e-05 s⁻¹ | 0.0014 ± 0.00034 s⁻¹ | 0.000388 ± 0.00011 s⁻¹ |
| C8G U57C | < 1e-05 s⁻¹ | < 1e-05 s⁻¹ | < 1e-05 s⁻¹ | – | < 1e-05 s⁻¹ | < 1e-05 s⁻¹ | – |
| A12U A52C C67A | 2.65e-05 ± 5e-06 s⁻¹ | – | – | – | – | – | – |
| G32A A52C | < 1e-05 s⁻¹ | – | < 1e-05 s⁻¹ | 128 ± 28 µM | < 1e-05 s⁻¹ | < 1e-05 s⁻¹ | – |
| A39G C58G | 0.000195 ± 2.9e-05 s⁻¹ | 7.24e-05 ± 1.7e-05 s⁻¹ | 0.000151 ± 2.3e-05 s⁻¹ | 3340 ± 1100 µM | – | 3.89e-05 ± 1.2e-05 s⁻¹ | – |
| A15G C16U C68G | 5.74e-05 ± 2.6e-05 s⁻¹ | 8.91e-05 ± 3e-05 s⁻¹ | – | – | – | 8.06e-05 ± 1.8e-05 s⁻¹ | – |
| A12C U31G | 0.00416 ± 0.00048 s⁻¹ | 0.00237 ± 0.00075 s⁻¹ | 0.00339 ± 0.00051 s⁻¹ | 2340 ± 410 µM | 8.48e-05 ± 1.8e-05 s⁻¹ | 0.00081 ± 0.00015 s⁻¹ | 0.000245 ± 7.1e-05 s⁻¹ |
| A14G A64G | 0.0806 ± 0.028 s⁻¹ | – | 0.0677 ± 0.017 s⁻¹ | 2030 ± 810 µM | 0.00184 ± 0.00024 s⁻¹ | 0.0212 ± 0.0065 s⁻¹ | 0.00428 ± 0.001 s⁻¹ |
| C11G C67G C70G | 5.32e-05 ± 2.1e-05 s⁻¹ | – | – | – | – | 8.18e-05 ± 2.2e-05 s⁻¹ | – |
| G51U G60C | 1.97e-05 ± 5.9e-06 s⁻¹ | – | – | – | – | – | – |
| G60A C61A | < 1e-05 s⁻¹ | – | – | – | < 1e-05 s⁻¹ | – | < 1e-05 s⁻¹ |
| G62U C67U | < 1e-05 s⁻¹ | – | < 1e-05 s⁻¹ | – | – | – | – |

| Variant | kcat [1] | self-cleavage kobs at 2500 uM GlcN6P [2] | self-cleavage kobs at 10000 uM GlcN6P [3] | KM [4] | self-cleavage kobs at 40 uM GlcN6P [5] | self-cleavage kobs at 640 uM GlcN6P [6] | self-cleavage kobs at 160 uM GlcN6P [7] |
| --- | --- | --- | --- | --- | --- | --- | --- |
| U54G C70A | 0.000123 ± 2.4e-05 s⁻¹ | 0.000143 ± 2.9e-05 s⁻¹ | 0.000109 ± 1.6e-05 s⁻¹ | – | 8.02e-05 ± 1.4e-05 s⁻¹ | 0.000198 ± 2.9e-05 s⁻¹ | 7.71e-05 ± 1.8e-05 s⁻¹ |
| U47G U56C A64G | 0.000113 ± 1.2e-05 s⁻¹ | 7.42e-05 ± 1.5e-05 s⁻¹ | 9.62e-05 ± 1.7e-05 s⁻¹ | 1500 ± 480 µM | – | 2.82e-05 ± 1.4e-05 s⁻¹ | – |
| A15G A42C | 1.26e-05 ± 4.1e-06 s⁻¹ | – | – | – | – | – | < 1e-05 s⁻¹ |
| G38A G59C | < 1e-05 s⁻¹ | – | < 1e-05 s⁻¹ | – | < 1e-05 s⁻¹ | < 1e-05 s⁻¹ | – |
| C10U U47A | 2.05e-05 ± 1.2e-06 s⁻¹ | – | – | 300 ± 150 µM | < 1e-05 s⁻¹ | – | < 1e-05 s⁻¹ |
| C16G U69G | 4.98e-05 ± 9.6e-06 s⁻¹ | 5.34e-05 ± 6.2e-06 s⁻¹ | – | – | – | 5.32e-05 ± 1.1e-05 s⁻¹ | 3.78e-05 ± 1.2e-05 s⁻¹ |
| A36U U57A G66C | < 1e-05 s⁻¹ | – | – | – | – | – | – |
| G9U G59A | < 1e-05 s⁻¹ | < 1e-05 s⁻¹ | – | – | < 1e-05 s⁻¹ | – | – |
| C16U A48U C58G C70G | 4.36e-05 ± 1.5e-05 s⁻¹ | – | – | – | – | 7.73e-05 ± 3e-05 s⁻¹ | 4e-05 ± 1.8e-05 s⁻¹ |
| A14G C70U | 0.0485 ± 0.02 s⁻¹ | – | – | 1020 ± 470 µM | 0.00188 ± 0.00021 s⁻¹ | 0.0183 ± 0.0066 s⁻¹ | 0.00502 ± 0.002 s⁻¹ |
| G44C A53G | 0.000232 ± 7.9e-06 s⁻¹ | 0.000105 ± 1.9e-05 s⁻¹ | 0.000177 ± 3e-05 s⁻¹ | 3060 ± 220 µM | – | 3.96e-05 ± 1.4e-05 s⁻¹ | – |
| A48G C58U | 1.71e-05 ± 2.1e-06 s⁻¹ | – | – | – | – | – | – |
| U49C C50G | < 1e-05 s⁻¹ | – | < 1e-05 s⁻¹ | – | < 1e-05 s⁻¹ | – | < 1e-05 s⁻¹ |
| A15C C58U | 3.18e-05 ± 2.2e-06 s⁻¹ | 2.9e-05 ± 1.1e-05 s⁻¹ | – | 214 ± 97 µM | – | – | – |
| G37A A53C C71U | 9.8e-05 ± 3.3e-06 s⁻¹ | 6.98e-05 ± 1.5e-05 s⁻¹ | – | 1010 ± 85 µM | – | 3.79e-05 ± 1.4e-05 s⁻¹ | – |
| C16A U30G | 0.000341 ± 4.6e-05 s⁻¹ | 0.000175 ± 2.3e-05 s⁻¹ | 0.000243 ± 9.7e-05 s⁻¹ | 2530 ± 560 µM | – | 6.82e-05 ± 1.2e-05 s⁻¹ | – |
| A33C C70G | < 1e-05 s⁻¹ | < 1e-05 s⁻¹ | < 1e-05 s⁻¹ | – | – | – | < 1e-05 s⁻¹ |
| U46C U55A | 0.00288 ± 0.00026 s⁻¹ | 0.00248 ± 0.00076 s⁻¹ | 0.00247 ± 0.00041 s⁻¹ | 1110 ± 150 µM | 9.7e-05 ± 1.5e-05 s⁻¹ | 0.0011 ± 0.0002 s⁻¹ | – |
